Test system: T1, GtrR (Burkholderia cenocepacia H111), ORF:a5d7dc98
T1 sequence: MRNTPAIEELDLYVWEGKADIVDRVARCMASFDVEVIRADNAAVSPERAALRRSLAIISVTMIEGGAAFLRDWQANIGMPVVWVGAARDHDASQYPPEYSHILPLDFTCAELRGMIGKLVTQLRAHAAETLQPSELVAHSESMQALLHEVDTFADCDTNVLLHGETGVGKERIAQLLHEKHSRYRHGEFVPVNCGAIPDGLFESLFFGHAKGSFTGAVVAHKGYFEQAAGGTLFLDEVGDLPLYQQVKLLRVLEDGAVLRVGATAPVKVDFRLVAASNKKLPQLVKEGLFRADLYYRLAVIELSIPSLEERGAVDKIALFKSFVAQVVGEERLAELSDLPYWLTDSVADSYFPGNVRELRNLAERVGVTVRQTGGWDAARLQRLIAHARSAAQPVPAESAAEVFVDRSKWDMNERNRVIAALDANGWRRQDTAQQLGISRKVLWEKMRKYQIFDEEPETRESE
Assay: EMSA
Details: Binding reactions per manufacturer's instructions (Thermo), 3'-biotin probes, 5% polyacrylamide gel; buffer, salt, pH and temperature not stated

## GGCTTGCGTATTTCTGGCCCGGTTGATTGATTTTGGTTGTGATTTTTTGCCACGCAACGTCGAAAACGCATCGCGCGGCCCCAGTTCGCTCTCGTATCGAAAATGAGATTTTCGATTTCGCAGACAATTGTTAAATGCGGAACCGATATCCGTCAACCTGAGAAAACGGGCGGCTTGCGTAAAATCGAAATCGCGGGTACCGGTTTAAGGTTGCAATGCAGCA (double strand) [Bcal3178 promoter 223 bp]
  binding: no binding

Source: paper PMC8174753
